# Experiments:
# Type in all cases: biochemical
# [1] = Recombinant oxidoreductase enzyme assay (E. coli-expressed, purified), substrate coclaurine
# Experimental: (§1) The coding sequences of oxidoreductase A and B (Seq ID NO 6 and NO 10, respectively) were codon optimised for expression in E. coli and the synthetic genes were cloned into the vector pET28 to yield a recombinant C-terminal 6×-His tagged enzymes (GenScript, Piscataway, N.J., USA). The constructs were transformed into E. coli Arctic express strain (Agilent Technologies, Wokingham, UK). Per construct, 3-5 freshly transformed Arctic express E. coli colonies were pre-inoculated in 10 mL 2YT medium containing 100 mg/L kanamycin and 20 mg/L gentamycin and incubated at 37° C. overnight. A 5-mL aliquot was used to inoculate 500 mL of the above medium not containing antibiotics and cells were allowed to grow at 30° C. until OD600=0.5-0.7. A 1-mL aliquot of the uninduced cells was removed and spun down at 14,000×g and the cell pellet was lysed in SDS-PAGE sample buffer. 1 mM IPTG was added to the culture and then incubated at 20° C. for 24 h. Cells were then harvested following a 5 min spin at 5,000×g and resuspended in 20 mL ice-cold extraction buffer (0.1 M Tris pH 8, 0.3 M NaCl, 0.1% (v/v) Tween 20 and Halt EDTA-free protease inhibitor cocktail (Pierce/Thermoscientific, Cramlington, UK)). Bacterial suspensions were lysed in a French Press at 4° C. using a 25 kpsi disruption cycle (Model TS0.75 KU, Constant Cell Disruption Systems, Daventry, UK). Cell lysates were then spun down at 12,000×g for 20 min at 4° C. and thus fractionated into supernatant (soluble fraction) and pellet.
# (§2) A 20 mL soluble fraction was filtered through a 0.45 μm syringe filter and the His-tagged proteins were purified using a His Trap Fast Flow crude 5 mL column (GE Healthcare, Little Chalfont, UK) installed in an AKTA Purifier UPC 10 System (GE Healthcare, Sweden) at 4° C. under the following steps: column equilibration in 50 mL 0.1 M Tris pH 8, 0.3 M NaCl, 0.1% (v/v) Tween 20 at 2 mL/min; sample loading at 0.4 mL/min; column wash in 50 mL 0.1 M Tris pH 8, 0.3 M NaCl, 0.1% (v/v) Tween 20, 5 mM imidazole at 2 mL/min; elution in 100 mL 0.1 M Tris pH 8, 0.3 M NaCl, 0.1% (v/v) Tween 20, and a 10-500 mM imidazole gradient at 2 mL/min. Two mL fractions were individually collected. Protein absorbance at 280 nm was monitored throughout the purification procedure. Elution fractions showing absorbance peaks were collected and analysed through SDS-PAGE. Purified proteins (Seq ID NO 3 and 11, respectively) were quantified using Coomassie Plus Protein Assay (Pierce/Thermoscientific, Cramlington, UK) and desalted to remove any inhibitors/interferents using 10 mL Zeba Spin Desalting Columns MWCO 7K, (Pierce/Thermoscientific, Cramlington, UK) pre-equilibrated in 20 mM Potassium Phosphate buffer pH 7.
# (§3) General reaction set up was carried out as previously described (Lenz & Zenk, 1995, FEBS 233:132-139). Substrates (S)-reticuline, 1,2-dehydroreticuline and coclaurine were purchased from TRC Chemicals (Toronto, Canada) and codeinone was supplied by MacFarlan-Smith (Edinburgh, UK). Assay reactions contained […], 5 μg oxidoreductase A or B preparation, 100 mM buffer covering a range of pH values (potassium phosphate pH 6-8, glycine-NaOH pH 9) and 75 μM substrate. Reactions were incubated for 2 h at 37° C. and immediately frozen at −80° C. Reactions were dried down to powder in speedvac Gene Vac EZ-2 plus (Ipswich, UK) at 40° C. and resuspended in 100 μL 1:1 Hexane:Ethanol (v/v), 0.1% Diethylamine (v/v). […]
# [2] = Recombinant oxidoreductase enzyme assay (E. coli-expressed, purified), substrate (S)-reticuline
# Experimental: as §1, §2, §3
# [3] = Recombinant oxidoreductase enzyme assay (E. coli-expressed, purified), substrate 1,2-dehydroreticuline
# Experimental: as §1, §2, §3
# [4] = Recombinant oxidoreductase enzyme assay (E. coli-expressed, purified), substrate codeinone; details: for nmol product formation at pH 6.0 / nmol product formation at pH 7.0 / nmol product formation at pH 8.0 / nmol product formation at pH 9.0: substrate codeinone
# Experimental: as §1, §2
# General reaction set up was carried out as previously described (Lenz & Zenk, 1995, FEBS 233:132-139). Substrates (S)-reticuline, 1,2-dehydroreticuline and coclaurine were purchased from TRC Chemicals (Toronto, Canada) and codeinone was supplied by MacFarlan-Smith (Edinburgh, UK). Assay reactions contained […], 5 μg oxidoreductase A or B preparation, 100 mM buffer covering a range of pH values (potassium phosphate pH 6-8, glycine-NaOH pH 9) and 75 μM substrate. Reactions were incubated for 2 h at 37° C. and immediately frozen at −80° C. Reactions were dried down to powder in speedvac Gene Vac EZ-2 plus (Ipswich, UK) at 40° C. and resuspended in 100 μL 1:1 Hexane:Ethanol (v/v), 0.1% Diethylamine (v/v).
# Chiral separations were performed following the method previously described (Iwasa et al., 2009, Phytochem 70:198-206) and carried out on a TSP HPLC system equipped with a UV6000 LP detector, a P4000 pump and an AS 3000 autosampler (Thermo Separation Products/Thermoscientific, Waltham, Mass., USA) connected to a mass spectrometer LCQ Classic mass spectrometer (Finnigan Mat, San Jose, Calif., USA). A Lux 5μ Cellulose 3 250×4.6 mm column (Phenomenex, Macclesfield, UK) was used for separations. […]
# [5] = Enzyme assay on soluble/microsomal preparations of S. cerevisiae expressing STORR fusion or modules, substrate 1,2-dehydroreticuline; details: soluble or microsomal preparations from S. cerevisiae; 100 μM substrate, 1 mM NADPH, 37° C. 3 hours
# Text: Genscript created synthetic DNA sequences were created for PsCPR [Genbank accession AAC05021, (Rosco A. et al. (1997) Arch. Biochem. Biophys. 348, 369-77), the full length STORR (CYP82Y2-Oxidoreductatse (“Oxired”)) protein, the N-terminal CYP82Y2 module and C-terminal oxidoreductase (Oxidoreductase) module, that were codon optimised for expression is Saccharomyces cerevisiae. The codon-optimized sequences are provided with the SEQ ID NO 30-33.
# Expression vector pESC-TRP::soloxired was created by digesting the corresponding PCR product with NotI and PacI and inserting this behind the GAL10 promoter of pESC-TRP. pESC-TRP::CPR was created by digesting the corresponding PCR product with BamHI and XhoI and inserting this behind the GAL1 promoter of pESC-TRP. This was then used to created pESC-TRP::CPR::CYP82Y2 and pESC-TRP::CPR::CYP82Y2-Oxidoreductase. These plasmids were then transformed in S. cerevisiae G175 (Sorger D. et al. (2004) J. Biol. Chem. 279, 31190-6) using lithium acetate protocol (Geitz R. D. and Woods R. A. (2002) Methods in Enzymology 350, 87-96). Yeasts were cultivated in Synthetic Defined (SD) medium composed of 2% carbon source, 0.5% ammonium sulfate, 1.7 g L^−1 yeast nitrogen base (without amino acids and ammonium sulfate) and 1.92 g L^−1 or tryptophan drop-out supplement (Sigma-Aldrich, Gillingham, UK). Cultures grown using glucose as a carbon source were used to inoculate 200 ml cultures with raffinose as a carbon source to an OD 600 nm of 0.10 in 1 L conical flasks. […]
# Enzymes assays were set up in 250 μL volumes containing final concentrations of 50 mM Bis-tris propane buffer, 1 mM NADPH and 100 μM of substrate. […] The extract was then dissolved in 100 μL of 50:50:0.1 hexane/ethanol/diethylamine and analysed by the chiral HPLC method to determine the relative amounts of (R)- and (S)-reticuline.
# Poppy capsules were processed and analysed by UPLC-MS and R-scripts as previously described (“the standard method”; (Winzer T. et al. (2012) Science 336, 1704-8)). […]
# [6] = NADPH dependent reduction, pH 6 to 9
# [7] = product neopine, triplicate mean ± SD
molecule,measurement,setting,value
"Oxidoreductase B: Recombinant His-tagged close homologue (96% amino acid identity) of oxidoreductase A (SEQ ID NO 11), expressed in E. coli (protein, listed as Papaver somniferum, His tag) MESSGVPVITLSSGKLMPVLGMGTFEKVGKGSERERLVILKAIEVGYRYFDTAAAYETEEVLGEAIAEALQLGLIKSRDELFISSMLWCTDAHPDRVLLALQNSLRNLKLEYLDLYMLPFPVSLKPGKITMDIQEEDICRMDYRSVWAAMEECQNLGFTKSIGVSNFSCKKLQELMATANIPPDVNQVEMSPAFQQKKLRDYCNANNILVSAVSILGSNGTPWGSNAVLGSEVLRKIAMAKGKSVAQVSMRWVYDQGASLVVKSFSEERLRENLNIFDWELTKEDHEKIGEIPQCRILSAYFLVSPNGPFKSQEELWDDEA",transformation of the substrate coclaurine (in words),[1]; pH 6 to 9,no transformation of the substrate
same,nmol product formation at pH 6.0,"[1]; substrate coclaurine, no product observed, pH 6.0, 75 μM substrate, NADPH, 2 h 37° C., triplicate mean ± SD",0.0 nmol
same,nmol product formation at pH 7.0,"[1]; substrate coclaurine, no product observed, pH 7.0",0.0 nmol
same,nmol product formation at pH 8.0,"[1]; substrate coclaurine, no product observed, pH 8.0",0.0 nmol
same,nmol product formation at pH 9.0,"[1]; substrate coclaurine, no product observed, pH 9.0",0.0 nmol
same,transformation of the substrate (S)-reticuline (in words),[2]; pH 6 to 9,no transformation of the substrate
same,nmol product formation at pH 6.0,"[2]; substrate (S)-reticuline, expected product dehydroreticuline, pH 6.0",0.0 nmol
same,nmol product formation at pH 7.0,"[2]; substrate (S)-reticuline, expected product dehydroreticuline, pH 7.0",0.0 nmol
same,nmol product formation at pH 8.0,"[2]; substrate (S)-reticuline, expected product dehydroreticuline, pH 8.0",0.0 nmol
same,nmol product formation at pH 9.0,"[2]; substrate (S)-reticuline, expected product dehydroreticuline, pH 9.0",0.0 nmol
same,"conversion of 1,2-dehydroreticuline to (R)-reticuline (in words)",[3]; pH 6 to 9,efficiently converted
same,nmol product formation at pH 6.0,"[3]; substrate dehydroreticuline, product (R)-reticuline, pH 6.0, triplicate mean ± SD",0.148 ± 0.036 nmol
same,nmol product formation at pH 7.0,"[3]; substrate dehydroreticuline, product (R)-reticuline, pH 7.0, triplicate mean ± SD",0.130 ± 0.021 nmol
same,nmol product formation at pH 8.0,"[3]; substrate dehydroreticuline, product (R)-reticuline, pH 8.0, triplicate mean ± SD",0.164 ± 0.020 nmol
same,nmol product formation at pH 9.0,"[3]; substrate dehydroreticuline, product (R)-reticuline, pH 9.0, triplicate mean ± SD",0.202 ± 0.026 nmol
same,formation of codeine from codeinone (in words),[4]; [6],did not form codeine
same,formation of neopine from codeinone (in words),[4]; [6],neopine production within pH values 6 to 8
same,nmol product formation at pH 6.0,[4]; product codeine,0.0 nmol
same,nmol product formation at pH 7.0,[4]; product codeine,0.0 nmol
same,nmol product formation at pH 8.0,[4]; product codeine,0.0 nmol
same,nmol product formation at pH 9.0,"[4]; product codeine, triplicate mean ± SD",0.0 nmol
same,nmol product formation at pH 6.0,[4]; [7],0.040 ± 0.020 nmol
same,nmol product formation at pH 7.0,[4]; [7],0.005 ± 0.001 nmol
same,nmol product formation at pH 8.0,[4]; [7],0.016 ± 0.008 nmol
same,nmol product formation at pH 9.0,[4]; product neopine,0.000 nmol
"oxidoreductase module: C-terminal oxidoreductase module of STORR (codon optimized SEQ ID NO 33) expressed in S. cerevisiae (protein, Yeast codon optimised Oxidoreductase) MESSGVPVITLGSGKVMPVLGMGTFEKVGKGSERERLAILKAIEVGYRYFDTAAAYETEEVLGEAIAEALQLGLVKSRDELFISSMLWCTDAHADRVLLALQNSLRNLKLEYVDLYMLPFPASLKPGKITMDIPEEDICRMDYRSVWAAMEECQNLGFTKSIGVSNFSCKKLQELMATANIPPAVNQVEMSPAFQQKKLREYCNANNILVSAISVLGSNGTPWGSNAVLGSEVLKKIAMAKGKSVAQVSMRWVYEQGASLVVKSFSEERLRENLNIFDWELTKEDHEKIGEIPQCRILSAYFLVSPNGPFKSQEELWDDEA","conversion efficiency of 1,2-dehydroreticuline to (R)-reticuline",[5],100%
